Assay results reported in PMC10397247.
Values belong to the binder of their own block, whether it stands above or below them.

Legend:
Test in all cases: two-hybrid library CCmax;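 also: natural log of median RNA to DNA barcode read ratio; higher means stronger binding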
4H1146-AA = molecular target: T1, 4H1146-AA; details: mean of both orientations
T1 chain: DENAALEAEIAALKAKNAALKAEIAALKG

4H3591-AA = molecular target: T2, 4H3591-AA; details: mean of both orientations
T2 chain: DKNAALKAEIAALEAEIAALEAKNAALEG

4H1809-AA = molecular target: T3, 4H1809-AA; details: mean of both orientations
T3 chain: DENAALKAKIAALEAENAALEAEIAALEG

4H3409-AA = molecular target: T4, 4H3409-AA; details: mean of both orientations
T4 chain: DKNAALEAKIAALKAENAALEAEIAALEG

4H2687-AA = molecular target: T5, 4H2687-AA; details: mean of both orientations
T5 chain: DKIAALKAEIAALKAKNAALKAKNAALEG

4H481-AA = molecular target: T6, 4H481-AA; details: mean of both orientations
T6 chain: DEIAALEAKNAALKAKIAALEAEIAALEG

4H55-AA = molecular target: T7, 4H55-AA; details: mean of both orientations
T7 chain: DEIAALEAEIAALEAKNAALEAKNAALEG

4H2935-AA = molecular target: T8, 4H2935-AA; details: mean of both orientations
T8 chain: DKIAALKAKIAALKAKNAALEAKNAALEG

4H2608-AA = molecular target: T9, 4H2608-AA; details: mean of both orientations
T9 chain: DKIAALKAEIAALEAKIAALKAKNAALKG

4H3940-AA = molecular target: T10, 4H3940-AA; details: mean of both orientations
T10 chain: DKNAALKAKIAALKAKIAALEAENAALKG

4H390-AA = molecular target: T11, 4H390-AA; details: mean of both orientations
T11 chain: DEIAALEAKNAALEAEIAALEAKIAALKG

APC2237-AA = molecular target: T12, APC2237-AA; details: mean of both orientations
T12 chain: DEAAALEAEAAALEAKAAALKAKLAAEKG

APC5383-AA = molecular target: T13, APC5383-AA; details: mean of both orientations
T13 chain: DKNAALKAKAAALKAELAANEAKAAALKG

APC232-AA = molecular target: T14, APC232-AA; details: mean of both orientations
T14 chain: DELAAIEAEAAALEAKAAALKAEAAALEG

APC3645-AA = molecular target: T15, APC3645-AA
T15 chain: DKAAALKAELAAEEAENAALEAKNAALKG

P5-AA-12HGe-W = molecular target: T16, P5-AA-12HGe-W; details: mean of both orientations
T16 chain: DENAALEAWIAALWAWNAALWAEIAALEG

P5-AA-12HGe-S = molecular target: T17, P5-AA-12HGe-S; details: mean of both orientations
T17 chain: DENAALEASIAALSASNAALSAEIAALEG

P5-AA-12HGe-A = molecular target: T18, P5-AA-12HGe-A; details: mean of both orientations
T18 chain: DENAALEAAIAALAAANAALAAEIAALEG

P5-AA-12HGe-M = molecular target: T19, P5-AA-12HGe-M; details: mean of both orientations
T19 chain: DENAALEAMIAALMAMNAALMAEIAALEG

P5-AA-1HAA-N = molecular target: T20, P5-AA-1HAA-N; details: mean of both orientations
T20 chain: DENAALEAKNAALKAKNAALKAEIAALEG

P5-AA-1HAA-K = molecular target: T21, P5-AA-1HAA-K; details: mean of both orientations
T21 chain: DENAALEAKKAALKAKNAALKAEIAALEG

P5-AA-12HGe-R = molecular target: T22, P5-AA-12HGe-R; details: mean of both orientations
T22 chain: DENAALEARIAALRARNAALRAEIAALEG

P5-AA-1HGe-T = molecular target: T23, P5-AA-1HGe-T; details: mean of both orientations
T23 chain: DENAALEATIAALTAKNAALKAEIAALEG

P6-AA-12HAA-D = molecular target: T24, P6-AA-12HAA-D; details: mean of both orientations
T24 chain: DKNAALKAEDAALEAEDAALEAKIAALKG

P6-AA-12HAA-Y = molecular target: T25, P6-AA-12HAA-Y; details: mean of both orientations
T25 chain: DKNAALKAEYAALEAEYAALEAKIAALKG

Core_NIIN-es_KEKK = molecular target: T26, Core_NIIN-es_KEKK
T26 chain: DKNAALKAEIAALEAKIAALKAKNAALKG

4H3020-AA = molecular target: T27, 4H3020-AA; details: mean of both orientations
T27 chain: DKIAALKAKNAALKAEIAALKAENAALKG

4H895-AA = molecular target: T28, 4H895-AA; details: mean of both orientations
T28 chain: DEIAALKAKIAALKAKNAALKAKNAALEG

4H1802-AA = molecular target: T29, 4H1802-AA; details: mean of both orientations
T29 chain: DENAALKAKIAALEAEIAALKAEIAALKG

4H3094-AA = molecular target: T30, 4H3094-AA; details: mean of both orientations
T30 chain: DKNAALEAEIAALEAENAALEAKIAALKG

4H2604-AA = molecular target: T31, 4H2604-AA; details: mean of both orientations
T31 chain: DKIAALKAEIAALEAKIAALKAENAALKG

4H1142-AA = molecular target: T32, 4H1142-AA
T32 chain: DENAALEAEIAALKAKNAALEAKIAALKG

P6-AA-1HAA-T = molecular target: T33, P6-AA-1HAA-T; details: mean of both orientations
T33 chain: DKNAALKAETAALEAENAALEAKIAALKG

P6-AA-12HGe-Q = molecular target: T34, P6-AA-12HGe-Q; details: mean of both orientations
T34 chain: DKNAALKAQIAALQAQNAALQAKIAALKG

P6-AA-12HGe-D = molecular target: T35, P6-AA-12HGe-D; details: mean of both orientations
T35 chain: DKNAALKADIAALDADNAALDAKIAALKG

P6-AA-12HGe-H = molecular target: T36, P6-AA-12HGe-H; details: mean of both orientations
T36 chain: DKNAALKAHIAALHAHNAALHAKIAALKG

P6-AA-12HGe-T = molecular target: T37, P6-AA-12HGe-T; details: mean of both orientations
T37 chain: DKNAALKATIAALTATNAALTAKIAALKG

P6-AA-1HGe-Q = molecular target: T38, P6-AA-1HGe-Q; details: mean of both orientations
T38 chain: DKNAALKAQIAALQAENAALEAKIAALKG

P6-AA-1HGe-W = molecular target: T39, P6-AA-1HGe-W; details: mean of both orientations
T39 chain: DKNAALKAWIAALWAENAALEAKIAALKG

O2-AA = molecular target: T40, O2-AA; details: mean of both orientations
T40 chain: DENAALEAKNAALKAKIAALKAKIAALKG

O3-AA = molecular target: T41, O3-AA; details: mean of both orientations
T41 chain: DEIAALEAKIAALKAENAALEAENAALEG

O1-AA = molecular target: T42, O1-AA; details: mean of both orientations
T42 chain: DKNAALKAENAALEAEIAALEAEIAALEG

Binder: DENAALEAEIAALEAKIAALEAKNAALKG [4H1064-AA]
interaction score (4H1146-AA): -0.282 | interaction score (4H3591-AA): 0.232 | interaction score (4H1809-AA): -1.44

Binder: DENAALEAENAALEAEIAALEAEIAALEG [4H1153-AA]
interaction score (Core_NIIN-es_KEKK): 1.86

Binder: DENAALEAENAALKAKIAALKAEIAALEG [4H1257-AA]
interaction score (4H3020-AA): -1.1 | interaction score (4H895-AA): -1.61 | interaction score (4H1802-AA): -1.38

Binder: DEIAALEAENAALKAKNAALKAEIAALEG [4H249-AA]
interaction score (4H3094-AA): -0.0288 | interaction score (4H2604-AA): -1.73

Binder: DENAALEAEIAALKAKNAALEAKIAALKG [4H1142-AA]
interaction score (4H1142-AA): 0.123

Binder: DEIAALEAENAALEAKIAALKAENAALEG [4H171-AA]
interaction score (O2-AA): -1.24 | interaction score (O3-AA): -1.73 | interaction score (O1-AA): -1.52

Second part, the binder after the results:

interaction score (4H3409-AA): -1.11 | interaction score (4H2687-AA): -0.889 | interaction score (4H481-AA): 0.532 | interaction score (4H55-AA): -1.11 | interaction score (4H2935-AA): -0.765 | interaction score (4H2608-AA): 1.38 | interaction score (4H3940-AA): -0.283 | interaction score (4H390-AA): 0.523
Binder: DENAALEAKIAALKAEIAALEAKIAALKG [4H1350-AA]

interaction score (APC2237-AA): -1.46 | interaction score (APC5383-AA): -1.57 | interaction score (APC232-AA): -2.09 | interaction score (APC3645-AA): -1.23
Binder: DENAALKAKIAALEAKNAALEAKIAALEG [4H1845-AA]

interaction score (P5-AA-12HGe-W): 1.04 | interaction score (P5-AA-12HGe-S): -0.516 | interaction score (P5-AA-12HGe-A): 0.833 | interaction score (P5-AA-12HGe-M): 1.77 | interaction score (P5-AA-1HAA-N): 1.72 | interaction score (P5-AA-1HAA-K): 2.15 | interaction score (P5-AA-12HGe-R): 1.65 | interaction score (P5-AA-1HGe-T): 2.43
Binder: DKNAALKAEIAALEAENAALEAKIAALKG [4H3606-AA]

interaction score (P6-AA-12HAA-D): -1.1 | interaction score (P6-AA-12HAA-Y): 2.29
Binder: DENAALEAKIAALKAKIAALKAEIAALEG [4H1385-AA]

interaction score (P6-AA-1HAA-T): 1.96 | interaction score (P6-AA-12HGe-Q): 1.69 | interaction score (P6-AA-12HGe-D): -0.647 | interaction score (P6-AA-12HGe-H): -1.23 | interaction score (P6-AA-12HGe-T): 0.16 | interaction score (P6-AA-1HGe-Q): 2.02 | interaction score (P6-AA-1HGe-W): 1.14
Binder: DENAALEAKIAALKAKNAALKAEIAALEG [4H1401-AA]
